Measurements taken from PMC3738525.
Where “and” joins values, the source holds several entries; their conditions need not be identical. Equal values may be shown once.

Tests used:
[1] = target: endogenous cofilin (human (endogenous in platelets and HUVEC)) (UniProt P23528); test: cross-linking; human washed platelets (resting, or stimulated with thrombin, with or without Y27632) lysed in NP-40 lysis buffer with BMOE or BMH (0.2 mM; 0.1 mM BMOE in Figure 7), 20 minutes on ice; immunoblot
[2] = target: endogenous cofilin (human (endogenous in platelets and HUVEC)) (UniProt P23528); test: cross-linking; intact endothelial cells (HUVEC, also transfected) in suspension, BMOE or BMH 1 mM or DMSO, 37 °C, one hour; Laemmli lysis, SDS-PAGE, immunoblot
[3] = target: recombinant (His)6-tagged human cofilin (human) (UniProt P23528); test: cross-linking; recombinant His-cofilin 10 µM to 40 µM in PBS pH 7.2, BMOE (two fold molar excess) or DMSO, one hour at room temperature; SDS-PAGE, Coomassie blue; oligomers only at >10 µM
[4] = target: recombinant (His)6-tagged human cofilin (human) (UniProt P23528); test: cross-linking; phosphorylated (by GST-LIMK2) and unphosphorylated His-cofilin (16 μg) cross-linked with 2 and 20 mM BMOE

Row | stoichiometry N [1] | stoichiometry N [2] | stoichiometry N [3] | stoichiometry N [4] | Substance
1 | 4 | 4 | – | – | endogenous cofilin (from UniProt P23528 1-166) (natural protein)
2 | – | – | 2 and 4 and 5 | 2 and 3 | recombinant (His)6-tagged human cofilin (from UniProt P23528 1-166) (natural protein)
